Paper PMC3084036 (Journal of molecular biology, 2011)

Legend:
[1] = target: chicken VE-cadherin EC1-2, wild type (chicken); test: AUC
[2] = target: human VE-cadherin EC1-2, wild type (human); test: AUC
[3] = target: human VE-cadherin EC1-5 ectodomain, wild type, glycosylated (human); test: AUC
[4] = target: human VE-cadherin EC3-4, wild type, bacterially produced (human); test: SEC
[5] = target: human VE-cadherin EC3-4, wild type, bacterially produced (human); test: AUC
[6] = target: mouse VE-cadherin EC1-2, wild type (mouse); test: AUC
[7] = target: mouse cadherin-9 EC1-2, wild type (mouse); test: AUC
[8] = target: mouse cadherin-10 EC1-2, wild type (mouse); test: AUC
AUC = target: the molecule itself; test: AUC

“chicken VE-cadherin EC1-2, wild type (domain or fragment)” gave a Kd [1] of 1.63 µM.

Molecule “human VE-cadherin EC1-2, wild type (domain or fragment)” has a Kd [2] of 4.38 µM.

Work on “human VE-cadherin EC1-5 ectodomain, wild type, glycosylated (domain or fragment)” yielded a Kd [3] of 1.03 µM.

In the case of “human VE-cadherin EC3-4, wild type, bacterially produced (domain or fragment)”, the stoichiometry N [4] is reported as 2 and the Kd [5] is reported as 1.93 µM.

Molecule “mouse VE-cadherin EC1-2, wild type (domain or fragment)” has a Kd [6] of 2.22 µM.

For “mouse cadherin-9 EC1-2, wild type (domain or fragment)”, the Kd [7] was 17 µM.

“mouse cadherin-10 EC1-2, wild type (domain or fragment)” gave a Kd [8] of 42.2 µM.

B1: mouse cadherin-11 EC1-2, wild type (domain or fragment)
chain: GWVWNQFFVIEEYTGPDPVLVGRLHSDIDSGDGNIKYILSGEGAGTIFVIDDKSGNIHATKTLDREERAQYTLMAQAVDRDTNRPLEPPSEFIVKVQDINDNPPEFLHEIYHANVPERSNVGTSVIQVTASDADDPTYGNSAKLVYSILEGQPYFSVEAQTGIIRTALPNMDREAKEEYHVVIQAKDMGGHMGGLSGTTKVTITLTD
In the case of B1, the Kd (AUC) is reported as 33.8 ± 0.2 µM.

B2: chicken VE-cadherin EC1-5 ectodomain, wild type, glycosylated (domain or fragment)
chain: DWIWNRMHIREEIDSPLPHHVGKLTSSVGNKNAMYIIEGESANTIFKVQGYDGDIYAFERLDREKKAEYELTAHIIDRRNNRSLEPPSKFIIKVSDINDNAPIFVQKIFNGSVPEMSRLGTSVTKVTAEDADDPTVAGHATVTYQIIKGNEYFTVDDSGVIFTARADLDRESQSAYEIIVKAKDALGLTGESSTATVIIRLTDINDNFPVFKHPSFHFRVPENISVGGEVGRVKVEDIDEPQHRNTKYSFVRGDYRDTFEIIANPFTNEGIIRPKKPLDFEKVAEYRFDIEATDHNVNPAYYKPGGSRSISTITIEVTDVDEPPVFTKLSYEFKVRENDPEIKTLGSVWAHDPDAAKRKIRFARRRASPNGDYVRVSDSGIIQLPKPLDREFSSLYNITVAAQEILEDGRLSDRESHAQVHVIVTDENDNAPELVYPEEPRVCENAAPGKVIIRISATDKDEISPGGFFTYSLTTEDSNFSLTENPDNTANITVKDGQFNRELAKIHYLPVIISDNGNPELSSTNTLVISVCKCNEKGDFTFCEE
modifications: glycosylated (N-linked and O-linked sugar)
In the case of B2, the Kd (AUC) is reported as 1.14 ± 0.04 µM.

B3: chicken cadherin-6b EC1-2, wild type (domain or fragment)
chain: SWMWNQFFLLEEYTGTDYQYVGKLHSDQDKGDGSLKYILSGDGAGDLFIINENTGDIQATKRLDREEKPVYILRAQAINRRTGRPVEPESEFIIKIHDINDNEPMFTKDVYNASIPEMSDVGTFVVQVTATDADDPTYGNSAKVVYSILQGQPYFSVESETGIIKTALLNMDRENREQYQVVIQAKDMGGQMGGLSGTTTVNITLTDVNDNPPRF
B3 gave a Kd (AUC) of 9.2 ± 0.6 µM.

B4: mouse cadherin-8 EC1-3, wild type (domain or fragment)
chain: GWVWNQMFVLEEFSGPEPILVGRLHTDLDPGSKKIKYILSGDGAGTIFQINDITGDIHAIKRLDREEKAEYTLTAQAVDFETNKPLEPPSEFIIKVQDINDNAPEFLNGPYHATVPEMSILGTSVTNVTATDADDPVYGNSAKLVYSILEGQPYFSIEPETAIIKTALPNMDREAKEEYLVVIQAKDMGGHSGGLSGTTTLTVTLTDVNDNPPKFAQSLYHFSVPEDVVLGTAIGRVKANDQDIGENAQSSYDIIDGDGTALFEITSDAQAQDGVIRLRKPLDFETKKSYTLKVEAANIHIDPRFSSRGPFKDTATVKIVVEDADEPPVF
With B4 the Kd (AUC) was 15 ± 0.4 µM.
